From publication PMC2904422

Biological target: myelin and lymphocyte protein 2 (MAL2) (rat (endogenous in WIF-B)) (UniProt Q7TPB7)
Assay: co-IP

- percent of total pIgA-R coimmunoprecipitated (% of total pIgA-R): 1
Substance: polymeric immunoglobulin A-receptor (pIgA-R), mature form (from UniProt P15083 19-769)
